Measurements as given in patent US20210147523A1 (TEIJIN PHARMA, published 2021).
Numbering of substitutions follows the chain as printed.

T1: human SPNS2 (human, UniProt Q8IVW8 1-549)
T1 construct: S1P transporter; in Cell ELISA and S1P assays on Flp-in 293 cells that also express human SphK1; also called Spinster homolog 2; native type
T1 sequence: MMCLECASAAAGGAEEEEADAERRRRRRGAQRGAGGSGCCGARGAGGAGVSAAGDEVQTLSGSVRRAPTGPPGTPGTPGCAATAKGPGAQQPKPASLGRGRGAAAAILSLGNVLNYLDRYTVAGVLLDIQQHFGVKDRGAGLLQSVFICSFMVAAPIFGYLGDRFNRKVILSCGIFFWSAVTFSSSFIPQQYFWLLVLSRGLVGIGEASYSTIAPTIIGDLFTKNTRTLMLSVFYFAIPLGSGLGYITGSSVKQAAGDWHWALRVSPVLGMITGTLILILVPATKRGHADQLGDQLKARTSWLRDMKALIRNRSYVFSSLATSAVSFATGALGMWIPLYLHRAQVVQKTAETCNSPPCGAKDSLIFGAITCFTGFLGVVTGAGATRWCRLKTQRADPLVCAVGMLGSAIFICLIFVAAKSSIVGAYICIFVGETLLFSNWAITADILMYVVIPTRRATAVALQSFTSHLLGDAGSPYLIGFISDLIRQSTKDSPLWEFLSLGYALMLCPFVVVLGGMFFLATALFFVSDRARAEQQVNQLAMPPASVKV

T2: mouse SPNS2 (mouse, UniProt Q91VM4 1-549)
T2 construct: on Flp-in 293 cells that also express human SphK1
T2 sequence: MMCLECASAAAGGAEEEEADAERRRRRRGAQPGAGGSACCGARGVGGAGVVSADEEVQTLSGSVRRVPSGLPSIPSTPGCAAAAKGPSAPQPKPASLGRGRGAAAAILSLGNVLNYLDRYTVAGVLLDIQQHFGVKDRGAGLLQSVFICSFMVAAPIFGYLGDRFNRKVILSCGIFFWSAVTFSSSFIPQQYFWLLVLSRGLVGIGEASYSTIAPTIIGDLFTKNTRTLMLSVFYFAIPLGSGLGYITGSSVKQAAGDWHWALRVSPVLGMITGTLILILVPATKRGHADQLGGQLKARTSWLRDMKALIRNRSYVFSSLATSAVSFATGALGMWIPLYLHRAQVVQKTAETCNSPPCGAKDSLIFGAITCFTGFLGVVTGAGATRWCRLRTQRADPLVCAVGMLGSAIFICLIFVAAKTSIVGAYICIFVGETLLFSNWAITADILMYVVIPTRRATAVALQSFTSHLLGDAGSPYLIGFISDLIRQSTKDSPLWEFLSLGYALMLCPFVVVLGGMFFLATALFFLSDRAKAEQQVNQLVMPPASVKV

T3: Mutant 3 of human SPNS2 (FLAG tag inserted in extracellular loop 7) (human, UniProt Q8IVW8 1-549)
T3 construct: on HEK293 cells; also called extracellular loop 7 mutant
T3 sequence: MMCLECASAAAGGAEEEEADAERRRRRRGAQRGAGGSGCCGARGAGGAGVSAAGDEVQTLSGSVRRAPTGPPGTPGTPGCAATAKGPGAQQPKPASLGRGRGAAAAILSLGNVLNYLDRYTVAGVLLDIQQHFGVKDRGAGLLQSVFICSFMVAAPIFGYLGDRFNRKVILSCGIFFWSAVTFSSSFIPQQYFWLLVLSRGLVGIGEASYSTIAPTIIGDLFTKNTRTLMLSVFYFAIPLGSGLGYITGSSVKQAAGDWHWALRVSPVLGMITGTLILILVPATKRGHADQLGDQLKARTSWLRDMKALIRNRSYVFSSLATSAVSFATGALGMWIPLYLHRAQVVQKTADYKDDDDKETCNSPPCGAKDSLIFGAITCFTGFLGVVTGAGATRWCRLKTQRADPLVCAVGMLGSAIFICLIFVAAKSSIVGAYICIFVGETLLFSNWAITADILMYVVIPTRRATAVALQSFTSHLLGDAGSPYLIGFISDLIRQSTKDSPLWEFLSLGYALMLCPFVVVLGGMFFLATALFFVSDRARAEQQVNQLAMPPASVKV

B1: 80-1104A (antibody, IgG2b, V domains shown)
VH: EVQLVETGGGLVQPGSSLKLSCSTSGFTFSETWMSWVRQAPGKGLEWVGLIKDKNSNYEANYAESVKGRFTISRDDSKRRVYLQMYTLRDQDTATYYCTSHEDFYYYSSYYFDYWGQGVMVTVSS
VL: DIVLTQSPATLSVTPGESVSLSCRASQGISTSIHWYQQKSNESPRLLIKYASQSMSGIPSRFSGSGSGTDFTLRINRVESEDFSVYYCQQSYNLPLTFGSGTKLEIKR
B2: 96-1403F (antibody, IgG2b, V domains shown)
VH: B1 VH with Q13R, S23A, E31D, G49A, Y58S, V66I, R79S, Y86N, S100R, S109G
VL: B1 VL with A9P, K39R, M55I, S56A, T72I, R74S, S91T, N93S, S100P, I106V
B3: 93-1310F (antibody, IgG2b, V domains shown)
VH: B1 VH with S23A, E31D, G49A, Y86F, Q117H
VL: B1 VL with E42G, M55I, S91T, N93S, K103R
B4: 33-0503E (antibody, IgG2b, V domains shown)
VH: EVQLVESGGGLVRPGGSMKLSCGASGFIFDNYYMTWVRQAPTKGLEWVASISSSGGNTYYRDSVRGRFTISRDNAGNTLSLQMGSLRAEDTATYHCAKEGYRGRYFDYWGQGVMVTVSS
VL: QVVLTQPNSVSTNLGSTVKLSCKRTTGNIGSNYVNWYQQHEGRSPTTMIYRDDERPDGVPDRFSGSIDRSSNSALLTINNVQTEDEAEYFCQSYSSGIIFGGGTKLTVL
B5: 49-0703G (antibody, IgG2b, V domains shown)
VH: EVQLVESGGGLVQPGRSMKLSCAASGFTFSNHYMAWVRQAPTKGLEWVASISTGGGNTYYRDSVKGRFTISRDNAKSTLYLQMDSLRSEDTATYYCARQDYSNYMGGFAYWGQGTLVTVSS
VL: QFVLTQPNSVSTNLGSTVKLSCKRSTGNIGNNYVNWYQQYEGRSPTTMIYRDDERPDGVPDRFSGSIDRSSNSALLTINNVQTEDEADYFCQSFSNGMFIFAGGTQLTVL
B6: 83-1110B (antibody, IgG2b, V domains shown)
VH: EVQLQQSGPEFVRPGTSVKFSCKVSGGSITSYFIHFVKQRPGQGLEWIGKIDPEDDSTKYGEKFKNKATLTADTSSNTAFLKLSSLTSEDTAIYFCTTLTGLDYWGQGVMVTVSS
VL: DIQMTQSPPVLSAAVGDRVTLSCKASRSLNKNLDWYQQKHGETPKLLIYHTHNLQTGIPSRFSGSGSDTDYTLTISSLQTEDVATYYCYQYHSGWTFGGGTRLELRR
B7: 94-1311E (antibody, V domains shown)
VH: EVQLQQSGAGLVRPRTSVRLSCKISGDSITAYYVHFVKQRPGQGLEWIGRIDPEDDSTKYSEKFKNKATLTADVSSSTAYLILSSLTSDDSATYFCSTLTGLDYWGQGVMVTVSS
VL: DIQMTQSPPVLSASVGDRVTLSCKASQSVHNKLDWYQQKHGEAPKLLIYYTHNLQTGIPSRFSGSGSGSDYTLTISSLRAEDVATYYCFQYYSGWTFGGGTKLEMKR
B8: 65-0810G (antibody, IgG2b, V domains shown)
VH: EVHLVESGGGLVQPGRSMKLSCTASGFTFNNYYMAWVRQAPTKGLEWVASISTGGGYTYYRDSVKGRFTISRDNTGNTLYLQMDSLRSEDTATYYCARCWELPYWGQGVMVTVSS
VL: QFVLTQPNSVSTNLGSTVKLSCRRSSGNIGNNYVNWYRQHEGRSPTTMIYRDDTRPDGVPNRFSGSIDRSSNSALLTINNVRPEDEAYYFCQSYSGSIYIFGGGTKLTVL

The binders below were run against T1, human SPNS2 (assay: Cell ELISA).
Method: (§1) Human and mouse SPNS2 and human SphK1 double stable expression Flp-in 293 cells were added to a poly D lysine coat 96-well plate (Corning, 356461) in a density of 1×10⁵ cells/well and was cultivated overnight, and then the culture medium was removed. An anti-SPNS2 antibody solution was adjusted into 20 μg/mL using 0.2% FBS/3% BSA/PBS, and 0.2% FBS/3% BSA/PBS (60 μL) was added to the antibody diluted solution (20 μL) to prepare seven-step diluted solutions by four fold serial dilution. Each diluted solution of the anti-SPNS2 antibody was added in a volume of 30 μL/well, and reacted for about one hour at room temperature. The antibody solution was removed, and the residue was washed with PBS containing 0.05% Tween 20 (PBS-T) two times, and fixed for about ten minutes at room temperature using 10% buffered formalin (Mildform (Trade mark) 10NM, Wako). After washing with PBS-T one time, a 5000-fold diluted solution of anti-rat IgG antibody HRP conjugate (Southern Biotech, 3030-05) in 0.2% FBS/3% BSA/PBS was added to each well (30 μL), and reacted for about one hour at room temperature. After washing with PBS-T four times, a substrate (TMB; 3, 3′, 5, 5′-tetramethylbenzidin) was added to each well (100 μL) to initiate the reaction. After 20 minutes, 2N sulfuric acid was added to each well (100 μL), and absorbance at 450 nm and 550 nm was measured. […] Each antibody bound to human SPNS2 and mouse SPNS2.

Row | Binder | Emax | pEC50
1 | B1 | 1.83 absorbance | 8.47 pEC50 (M)
2 | B2 | 1.86 absorbance | 7.76 pEC50 (M)
3 | B3 | 1.64 absorbance | 8.56 pEC50 (M)
4 | B4 | 2.03 absorbance | 8.12 pEC50 (M)
5 | B5 | 1.77 absorbance | 8.42 pEC50 (M)
6 | B6 | 1.6 absorbance | 8.32 pEC50 (M)
7 | B7 | 1.61 absorbance | 8.34 pEC50 (M)
8 | B8 | 1.7 absorbance | 8.36 pEC50 (M)

The binders below were run against T2, mouse SPNS2 (assay: Cell ELISA).
Method: as §1

Row | Binder | Emax | pEC50
9 | B1 | 1.61 absorbance | 8.32 pEC50 (M)
10 | B2 | 1.78 absorbance | 7.42 pEC50 (M)
11 | B3 | 1.61 absorbance | 8.29 pEC50 (M)
12 | B4 | 2.2 absorbance | 7.66 pEC50 (M)
13 | B5 | 1.67 absorbance | 8.09 pEC50 (M)
14 | B6 | 1.59 absorbance | 8.17 pEC50 (M)
15 | B7 | 1.52 absorbance | 8.2 pEC50 (M)
16 | B8 | 1.54 absorbance | 8.15 pEC50 (M)

The binders below were run against T1, human SPNS2 (assay: cell-based or functional assay).

Row | Binder | pIC50, S1P transport inhibition (LC-MS/MS of S1P)
17 | B1 | 7.7 pIC50 (M)
18 | B2 | 7 pIC50 (M)
19 | B3 | 7.6 pIC50 (M)
20 | B4 | 7.4 pIC50 (M)
21 | B5 | 7.4 pIC50 (M)
22 | B6 | 7.9 pIC50 (M)
23 | B7 | 7.9 pIC50 (M)
24 | B8 | 7.4 pIC50 (M)

These binders were tested against T2, mouse SPNS2 (assay: cell-based or functional assay).

Row | Binder | pIC50, S1P transport inhibition (LC-MS/MS of S1P)
25 | B1 | 8 pIC50 (M)
26 | B2 | 7.7 pIC50 (M)
27 | B3 | 8.2 pIC50 (M)
28 | B4 | 7.7 pIC50 (M)
29 | B5 | 7.6 pIC50 (M)
30 | B6 | 8.1 pIC50 (M)
31 | B7 | 8.2 pIC50 (M)
32 | B8 | 7.8 pIC50 (M)

The binders below were run against T3, Mutant 3 of human SPNS2 (FLAG tag …) (assay: flow cytometry, FLAG-insertion mutant).
Method: After the lipofection, the HEK 293 cells cultivated overnight were recovered from the culture dishes, and reacted with a cell staining buffer (BioLegend, 420201) containing an anti-FLAG antibody (Sigma-Aldrich, F1804) and an anti-SPNS2 antibody each in a volume of 20 μg/mL for 30 minutes at room temperature. After washing with a cell staining buffer one time, the anti-FLAG antibody was detected with an anti-mouse IgG-Alexa 647 conjugate antibody, and the anti-SPNS2 antibody was detected with an anti-rat IgG-FITC conjugate antibody with flow cytometer BD LSR Fortessa (Becton Dickinson). The binding ability to each mutant was evaluated with the ratio of the FITC-positive cell rate to the Alexa 647-positive cell rate. In Table 7, symbol (+) indicates a ratio of less than 0.1, symbol (±) indicates a ratio of 0.1 or more and less than 0.5, and symbol (−) indicate a ratio of 0.5 or more.

Row | Binder | FITC+/Alexa 647+ cell rate ratio
33 | B1 | ≥ 0.5 ratio
34 | B2 | ≥ 0.5 ratio
35 | B3 | ≥ 0.5 ratio
36 | B4 | ≥ 0.5 ratio
37 | B5 | ≥ 0.5 ratio
38 | B6 | ≥ 0.5 ratio
39 | B7 | ≥ 0.5 ratio
40 | B8 | ≥ 0.5 ratio
